From the supplement of paper PMC12764529
± gives the half width of the 95% confidence interval.

Legend:
[1] = folding stability dG unfold from chymotrypsin proteolysis; higher = more stable
In short: (§1)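 Sequencing followed digestion of designed mini-proteins with trypsin and chymotrypsin, each at 11 concentrations in threefold dilutions together with a no-protease condition. The mini-proteins were under 80 residues, had no cysteine, sat in a PA-tagged cDNA display construct, and were kept only if AlphaFold2 dimer inter-PAE was above 15. From the counts, Bayesian fitting gave K50, and unfolding free energy was derived against a sequence-predicted unfolded-state K50 and a shared folded-state K50, per protease or combined.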

[2] = folding stability dG unfold (combined trypsin and chymotrypsin); higher = more stable
In short: as §1

[3] = folding stability dG unfold from trypsin proteolysis; higher = more stable
In short: as §1

## SAGGSAGGSAGGETIELKLPNGKVLRVEKDKEKGKTYKIYDTKTKKLVKTFKSKEALKKASAGGSAGGSAGG [r7_72_TrROS_Hall]
[1]
  folding stability dG unfold: 1.19 ± 0.17 kcal/mol
[2]
  folding stability dG unfold: 1.02 ± 0.11 kcal/mol
[3]
  folding stability dG unfold: 0.755 ± 0.07 kcal/mol

## SAGGSAGGSAGGETVVLVTYDKETKTLTVQTFELENGELKTTTKTVTLTDEQLESLPPASAGGSAGGSAGGS [r10_291_TrROS_Hall]
[1]
  folding stability dG unfold: 1.99 ± 0.083 kcal/mol
[2]
  folding stability dG unfold: 1.87 ± 0.18 kcal/mol
[3]
  folding stability dG unfold: 1.39 ± 0.07 kcal/mol

## SAGGSAGGSAGGEVIEIELPGKTKEEIEEAIKKLPENYKIEIKKDENGRIRVRIFRKEDLSAGGSAGGSAGG [r7_662_TrROS_Hall]
[1]
  folding stability dG unfold: 1.5 ± 0.17 kcal/mol
[2]
  folding stability dG unfold: 1.44 ± 0.42 kcal/mol
[3]
  folding stability dG unfold: 1.6 ± 0.15 kcal/mol

## SAGGSAGGSAGGFKLPPGKPIEFPIKHGGEPYPVEIWRDPNKLMIHFPGNNQWIPADDIKSAGGSAGGSAGG [r7_37_TrROS]
[1]
  folding stability dG unfold: -0.589 ± 0.87 kcal/mol
[2]
  folding stability dG unfold: -0.931 ± 0.58 kcal/mol
[3]
  folding stability dG unfold: -0.828 ± 0.45 kcal/mol

## SAGGSAGGSAGGFNIEVVPGEPGWVIKIEFPDHPITAFVDPEDGKLWIYNPDNGMIFPLSAGGSAGGSAGGS [r10_434_TrROS]
[1]
  folding stability dG unfold: 1.78 ± 0.084 kcal/mol
[2]
  folding stability dG unfold: 2.03 ± 0.077 kcal/mol
[3]
  folding stability dG unfold: 2.2 ± 0.042 kcal/mol

## SAGGSAGGSAGGFTIKIETRPMPMFSKDGKPLAEMNMYRIKIEVPDMPPGLADKLIDLIQSAGGSAGGSAGG [r7_450_TrROS]
[1]
  folding stability dG unfold: 2.67 ± 0.097 kcal/mol
[2]
  folding stability dG unfold: 2.67 ± 0.22 kcal/mol
[3]
  folding stability dG unfold: 1.66 ± 0.11 kcal/mol

## SAGGSAGGSAGGGIKIKIISVKPLPDGSVLVKAKIIFPDGKEKEILILFNKNGEIKIFEKSAGGSAGGSAGG [r7_860_TrMRF]
[1]
  folding stability dG unfold: 4.03 ± 0.069 kcal/mol
[2]
  folding stability dG unfold: 3.71 ± 0.087 kcal/mol
[3]
  folding stability dG unfold: 3.04 ± 0.11 kcal/mol

## SAGGSAGGSAGGGKKVKVIIAADKPEEAEKAIEKLEKETDLPLEDVIVIPREEAEKLGLASAGGSAGGSAGG [r7_84_TrMRF]
[1]
  folding stability dG unfold: -0.574 ± 0.14 kcal/mol
[2]
  folding stability dG unfold: -0.553 ± 0.47 kcal/mol
[3]
  folding stability dG unfold: -1.27 ± 0.82 kcal/mol

## SAGGSAGGSAGGGLRKITFETPLSDFEELVKALGLNVVSAEVEPGAGGLAKVTLLVEEGSAGGSAGGSAGGS [r10_999_TrMRF]
[1]
  folding stability dG unfold: 1.843 ± 0.016 kcal/mol
[2]
  folding stability dG unfold: 1.55 ± 0.041 kcal/mol
[3]
  folding stability dG unfold: 1.04 ± 0.013 kcal/mol

## SAGGSAGGSAGGGMAITTRPGSSEVSTTPVPSDVTASTTTPLASGEPVEVTYERVGDPTLSAGGSAGGSAGG [r7_21_JUSTAS]
[1]
  folding stability dG unfold: -0.525 ± 0.16 kcal/mol
[2]
  folding stability dG unfold: 0.0781 ± 0.079 kcal/mol
[3]
  folding stability dG unfold: 0.405 ± 0.022 kcal/mol

## SAGGSAGGSAGGGMESKTTVTEEFSPEEVKTVTTVTTYPDGSVTETPENVKVPPGALAGSAGGSAGGSAGGS [r10_280_JUSTAS]
[1]
  folding stability dG unfold: 1.92 ± 0.13 kcal/mol
[2]
  folding stability dG unfold: 1.49 ± 0.11 kcal/mol
[3]
  folding stability dG unfold: 0.1 ± 0.053 kcal/mol

## SAGGSAGGSAGGGMSFKKRKGSISLTLRVTLTLPNGTPATLDIELELEEETVEPVYPELESAGGSAGGSAGG [r7_926_JUSTAS]
[1]
  folding stability dG unfold: 4.76 ± 0.14 kcal/mol
[2]
  folding stability dG unfold: 4.19 ± 0.24 kcal/mol
[3]
  folding stability dG unfold: 2.87 ± 0.086 kcal/mol

## SAGGSAGGSAGGGMSSAPPVTITPVSETTERLPNGTLVRTTTYAVDDGSTVTTTTVTPVSSAGGSAGGSAGG [r7_948_JUSTAS]
[1]
  folding stability dG unfold: 0.952 ± 0.069 kcal/mol
[2]
  folding stability dG unfold: 0.602 ± 0.1 kcal/mol
[3]
  folding stability dG unfold: -0.127 ± 0.099 kcal/mol

## SAGGSAGGSAGGGMSSVSLVKTSTITVGNGTVKLETLSYPDSSFVRTTLPNGKDVVEPLPSAGGSAGGSAGG [r7_655_JUSTAS]
[1]
  folding stability dG unfold: 0.105 ± 0.1 kcal/mol
[2]
  folding stability dG unfold: -0.089 ± 0.13 kcal/mol
[3]
  folding stability dG unfold: -0.561 ± 0.16 kcal/mol

## SAGGSAGGSAGGGMSTAVLKIDDKWVPVRIYPDSVVIEYPDGSTKTISLSEIPENLIELPSAGGSAGGSAGG [r7_748_JUSTAS]
[1]
  folding stability dG unfold: 0.547 ± 0.07 kcal/mol
[2]
  folding stability dG unfold: 1.43 ± 0.15 kcal/mol
[3]
  folding stability dG unfold: 2.2 ± 0.12 kcal/mol

## SAGGSAGGSAGGGMSVKVTVKDPVNGTTSVYELSVPPGVSNVVINVKTPDNSTVTKVTLESAGGSAGGSAGG [r7_687_JUSTAS]
[1]
  folding stability dG unfold: 1.28 ± 0.034 kcal/mol
[2]
  folding stability dG unfold: 1.11 ± 0.11 kcal/mol
[3]
  folding stability dG unfold: 0.754 ± 0.09 kcal/mol

## SAGGSAGGSAGGGMTTTKTEVSFSPAGGLVTTKSTERLPGTGELKEVTSVTPLASSGTTSAGGSAGGSAGGS [r10_296_JUSTAS]
[1]
  folding stability dG unfold: 0.846 ± 0.034 kcal/mol
[2]
  folding stability dG unfold: 0.622 ± 0.081 kcal/mol
[3]
  folding stability dG unfold: 0.0156 ± 0.034 kcal/mol

## SAGGSAGGSAGGGMTVEESVFLDPSGTRITVTTRVFDDGTVVTETEVTPLPPTPNPALASAGGSAGGSAGGS [r10_878_JUSTAS]
[1]
  folding stability dG unfold: 1.08 ± 0.066 kcal/mol
[2]
  folding stability dG unfold: 1.11 ± 0.15 kcal/mol
[3]
  folding stability dG unfold: 1.2 ± 0.035 kcal/mol

## SAGGSAGGSAGGGPDATPVTTTYVDLNLTPVSTETDPETGAVTVTYKLPGETITVTLPASAGGSAGGSAGGS [r10_962_JUSTAS]
[1]
  folding stability dG unfold: 1.11 ± 0.42 kcal/mol
[2]
  folding stability dG unfold: 0.573 ± 0.22 kcal/mol
[3]
  folding stability dG unfold: -0.629 ± 0.13 kcal/mol

## SAGGSAGGSAGGGPEDRVVPLFFEFDLPEDVVLEVPSDADVFVFRLPDRTLMVLLVDERESAGGSAGGSAGG [r7_584_TrMRF]
[1]
  folding stability dG unfold: 2.88 ± 0.023 kcal/mol
[2]
  folding stability dG unfold: 2.51 ± 0.057 kcal/mol
[3]
  folding stability dG unfold: 1.82 ± 0.051 kcal/mol

## SAGGSAGGSAGGGPSSMVTVETKEELLTLPNGEKLIKTTTTTKTPTATTTTTTVLPAELLSAGGSAGGSAGG [r7_682_JUSTAS]
[1]
  folding stability dG unfold: 0.561 ± 0.068 kcal/mol
[2]
  folding stability dG unfold: 0.515 ± 0.2 kcal/mol
[3]
  folding stability dG unfold: 0.0664 ± 0.063 kcal/mol

## SAGGSAGGSAGGGSMESVVLNVPIYEKTPDGSWRLVKELPILVPVDASPEVVEKKRKELSAGGSAGGSAGGS [r10_470_JUSTAS]
[1]
  folding stability dG unfold: -0.822 ± 0.68 kcal/mol
[2]
  folding stability dG unfold: -0.481 ± 0.17 kcal/mol
[3]
  folding stability dG unfold: -0.41 ± 0.13 kcal/mol

## SAGGSAGGSAGGGSMVTVPVTTESTTTVPPGAPAVEAAPVDPATATVSTTTSSTSLVASSAGGSAGGSAGGS [r10_82_JUSTAS]
[1]
  folding stability dG unfold: 0.534 ± 0.029 kcal/mol
[2]
  folding stability dG unfold: 0.862 ± 0.092 kcal/mol
[3]
  folding stability dG unfold: 1.22 ± 0.081 kcal/mol

## SAGGSAGGSAGGGSPIPTTTLTTVTYGSSSSLLSSAKGPSSVPYSLPSSLGSSVSTTVVGSAGGSAGGSAGG [r7_141_JUSTAS]
[1]
  folding stability dG unfold: -0.13 ± 0.29 kcal/mol
[2]
  folding stability dG unfold: -0.34 ± 0.38 kcal/mol
[3]
  folding stability dG unfold: -0.911 ± 0.3 kcal/mol

## SAGGSAGGSAGGGSSMITLERESEPGETFEFNFPGVSEVTVTEVIPGDGKVTVKVEVTSPSAGGSAGGSAGG [r7_292_JUSTAS]
[1]
  folding stability dG unfold: 0.0882 ± 0.09 kcal/mol
[2]
  folding stability dG unfold: 0.537 ± 0.11 kcal/mol
[3]
  folding stability dG unfold: 0.782 ± 0.059 kcal/mol

## SAGGSAGGSAGGGSSVITTTETDPANGLLTTTTTTINGSETVPSSTVSPVPPPPPPSTLSAGGSAGGSAGGS [r10_354_JUSTAS]
[1]
  folding stability dG unfold: 0.0312 ± 0.094 kcal/mol
[2]
  folding stability dG unfold: 1.11 ± 0.12 kcal/mol
[3]
  folding stability dG unfold: 1.67 ± 0.14 kcal/mol

## SAGGSAGGSAGGGSVTIEIEFEAKPGEKFTVTIKGFKKVEITEIYPFDGKVRIKVKVTPESAGGSAGGSAGG [r7_292_TrMRF]
[1]
  folding stability dG unfold: 3.88 ± 0.13 kcal/mol
[2]
  folding stability dG unfold: 3.67 ± 0.13 kcal/mol
[3]
  folding stability dG unfold: 3.18 ± 0.13 kcal/mol

## SAGGSAGGSAGGGVAFSSDTTETRIDTTDDDTIVITTTTYAPNPSSTTTTVTTVPPDVPLSAGGSAGGSAGG [r7_128_JUSTAS]
[1]
  folding stability dG unfold: 0.0059 ± 0.23 kcal/mol
[2]
  folding stability dG unfold: 0.75 ± 0.14 kcal/mol
[3]
  folding stability dG unfold: 1.24 ± 0.044 kcal/mol

## SAGGSAGGSAGGGYIEIDSVHLHPDGTVTRTRAVLEVDENGNVRVLSAETETVPLDDILGSAGGSAGGSAGG [r7_521_TrMRF]
[1]
  folding stability dG unfold: 2.32 ± 0.043 kcal/mol
[2]
  folding stability dG unfold: 2.38 ± 0.12 kcal/mol
[3]
  folding stability dG unfold: 2.28 ± 0.14 kcal/mol

## SAGGSAGGSAGGHMVMITITIPIKKGAEIKFGDWDIKVPPGEQIQITIMIPVPPPDDDKSAGGSAGGSAGGS [r10_949_TrROS]
[1]
  folding stability dG unfold: 2.8 ± 0.21 kcal/mol
[2]
  folding stability dG unfold: 2.79 ± 0.3 kcal/mol
[3]
  folding stability dG unfold: 2.91 ± 0.16 kcal/mol

## SAGGSAGGSAGGIAEALKAAFPDEGVEVVSIHPDGKVEVRVDGTPELREKVEKAVKELLSSAGGSAGGSAGG [r11_418_TrMRF]
[1]
  folding stability dG unfold: 0.621 ± 0.067 kcal/mol
[2]
  folding stability dG unfold: 0.798 ± 0.18 kcal/mol
[3]
  folding stability dG unfold: 1.08 ± 0.087 kcal/mol

## SAGGSAGGSAGGIEDMAEKNPDWKIVEPIEIEIPYYNPDGKWYEVEYTIFVIVPPGDEISAGGSAGGSAGGS [r10_0_TrROS]
[1]
  folding stability dG unfold: 2.12 ± 0.075 kcal/mol
[2]
  folding stability dG unfold: 1.79 ± 0.23 kcal/mol
[3]
  folding stability dG unfold: 1.46 ± 0.16 kcal/mol

## SAGGSAGGSAGGIGEGTPIERLIEGKPIPFYVDESTGKAYYTLPEDKKIETTIEDPEKVSAGGSAGGSAGGS [r10_1185_TrMRF]
[1]
  folding stability dG unfold: 0.442 ± 0.22 kcal/mol
[2]
  folding stability dG unfold: 0.202 ± 0.15 kcal/mol
[3]
  folding stability dG unfold: -0.377 ± 0.19 kcal/mol

## SAGGSAGGSAGGIKKGDKIKIVKVKVEKRYDKDGKLVEERIVSIEEEEIEVPSLEDLLKASAGGSAGGSAGG [r7_439_TrROS_Hall]
[1]
  folding stability dG unfold: 0.739 ± 0.06 kcal/mol
[2]
  folding stability dG unfold: 0.654 ± 0.25 kcal/mol
[3]
  folding stability dG unfold: 0.732 ± 0.14 kcal/mol

## SAGGSAGGSAGGIKPGEKPVYKVKIYNEETGEELEVEFKTLEELEKLKIPGVKKIEVEKVSAGGSAGGSAGG [r7_793_TrROS_Hall]
[1]
  folding stability dG unfold: 1.35 ± 0.045 kcal/mol
[2]
  folding stability dG unfold: 1.2 ± 0.2 kcal/mol
[3]
  folding stability dG unfold: 0.786 ± 0.16 kcal/mol

## SAGGSAGGSAGGISPSANVKLVAVDPERGLVVAVAKDPNSGSVSVVVFDANGNSSILPASAGGSAGGSAGGS [r10_450_TrMRF]
[1]
  folding stability dG unfold: 0.495 ± 0.029 kcal/mol
[2]
  folding stability dG unfold: 0.267 ± 0.043 kcal/mol
[3]
  folding stability dG unfold: -0.317 ± 0.079 kcal/mol
